# Data as given in patent WO2021180110A1.
# B1: CD147-his fusion protein, P35613 22-205 (receptor)
# chain: AAGTVFTTVEDLGSKILLTCSLNDSATEVTGHRWLKGGVVLKEDALPGQKTEFKVDSDDQWGEYSCVFLPEPMGTANIQLHGPPRVKAVKSSEHINEGETAMLVCKSESVPPVTDWAWYKITDSEDKALMNGSESRFFVSSSQGRSELHIENLNMEADPGQYRCNGTSSKGSDQAIITLRVRSH
# Target: COVID-19 Spike-RBD-his fusion protein (novel coronavirus (COVID-19)), P0DTC2
# Details: remark: other sources report otherwise
binder,measurement,value
B1,EC50,68.8 µg/mL
